# Data taken from the RNAGym collection of RNA variant scans (doi:10.1101/gr.219683.116).
# B1: mRNA-splicing (parent)
# chain: AGUUGCUGCUGGGAGCUCCAGCACAGUGAAAUGGACAGAAGGGCAGAGCAA
# Variants of: B1
# Test: exon inclusion enrichment index; higher = more inclusion; WT1 exon 5 minigene, HEK293
row,Variant,exon inclusion enrichment index
1,AGUUGAAGAAGGGAGCUCCAGCACAGUGAAAUGGUAAGAAGGGCAGAGCAA [C6A U7A C9A U10A A35U C36A],0.00157
2,AGUUAUAUAUGGGAGCUCCAGCACAGUGAAAUGGACCGAAGGGCAGAGCAA [G5A C6U U7A G8U C9A A37C],0.285
3,AGUUCGCGCCGGUUGCUCCAGCACAGUGAAAUGGACAGAAGGGCAGAGCAA [G5C C6G U7C U10C G13U A14U],1.35
4,AGUUAUAUAUGGGAGCUCCAGCACAGUGAAAUGGAACGAAGGGCAGAGCAA [G5A C6U U7A G8U C9A C36A A37C],0.0847
5,AGUUGCUGCUGGGAGCUCCAGCACAGUGAAAGUGACAGAAGGGCAGAGCAA [U32G G33U],0.0308
6,AGUUACCACCGGGAGCUCCAGCACAGUGAAAUGGACAGAAGGGCAGUGCAA [G5A U7C G8A U10C A47U],2
7,AGUUGCUGCUGGGAGCUCCAGCACAGUGAAAUGGACAGAAGGGACGAGCAA [C44A A45C],0.767
8,AGUUGAAGAAGGGAGCUCCAGUACAGUGAAAUGGACAGAAGGGCAGAGCAA [C6A U7A C9A U10A C22U],0.414
9,AGUUGACGACGGGAGCUCCAGCACAGUGAAAUGGACAGAAGGCCAGAGCAA [C6A U7C C9A U10C G43C],3.07
10,AGUUCGCGCCGGGAGCUCCAGCACAGUGUGAUGGACAGAAGGGCAGAGCAA [G5C C6G U7C U10C A29U A30G],3.83
11,AGUUUCUUUUGGGAGCUCCAGCACUGUGAAAUGGACAGAAGGGCAGAGCAA [G5U G8U C9U A25U],0.289
12,AGUUUCUUUUGGGAGCUCCAGCACCGUGAAAUGGACAGAAGGGCAGAGCAA [G5U G8U C9U A25C],0.793
13,AGUUUGUCUCGGGAGCUCCAGCACAGUGAAAUGGACAGAAGGGCAGAGCAA [G5U C6G G8C C9U U10C],1.09
14,AGUUAGGGAUGGGAGCUCCAGCACAGUGAAAUGGACAGGAGGGCAGAGCAA [G5A C6G U7G C9A A39G],0.00219
15,AGUUCGUUUUGGGAGCUCCAGCACAGUGAAAUGGACAGAAGGGCAGAGCAA [G5C C6G G8U C9U],1.08
16,AGUUCGCGCCGGGAGCUCCAGCACAGUGAAAUGGACAGAAGGCUAGAGCAA [G5C C6G U7C U10C G43C C44U],3.09
17,AGUUGAAGAGAGGAGCUCCAGCACAGUGAAAUGGACAGAAGGGCAGAGCAA [C6A U7A C9A U10G G11A],1.24
18,AAUUCUUCUCGGGAGCUCCAGCACAGUGAAAUGGACAGAAGGGCAGAGCAA [G2A G5C C6U G8C C9U U10C],2.9
19,AGUUAUAUAUGGGAGCUCCAGCACAGUGAAAUGGACAGCGGGGCAGAGCAA [G5A C6U U7A G8U C9A A39C A40G],0.0817
20,AGGUGACGACGGGAGCUCCAGCACAGUGAAAUGGACAGAAGGGCAGAGCAA [U3G C6A U7C C9A U10C],0.785
21,AGUUCACACUCGGAGCUCCAGCACAGUGAAAUGGACAGAAGGGCAGAGCAA [G5C C6A U7C G8A G11C],1.01
22,AGUUCACACAGGGAGCUCCAGCACAGUGAAAUGGACAGAAGGGCAGCUCAA [G5C C6A U7C G8A U10A A47C G48U],0.0993
23,AGUUACCACCGGGAGCUCCAGCCGAGUGAAAUGGACAGAAGGGCAGAGCAA [G5A U7C G8A U10C A23C C24G],3.75
24,AGUUCGCGCCGGGAGCUCCAGCACAGUGAUCUGGACAGAAGGGCAGAGCAA [G5C C6G U7C U10C A30U A31C],3.11
25,AGUUCGCGCCGGGAGCUCCAGCACAGUGAAAUGGAGGGAAGGGCAGAGCAA [G5C C6G U7C U10C C36G A37G],1.19
26,AGUUACCCACGGGAGCUCCAGCACAGUGAAAUGGACAGAAGGGCAGAGCAA [G5A U7C G8C C9A U10C],1.56

row,Variant,exon inclusion enrichment index
1,AGUUACCACCGGGAGCUCCAGCACAGUGAAAUGGACAGUUGGGCAGAGCAA [G5A U7C G8A U10C A39U A40U],1.02
2,AGUUCGCAUCGGGAGCUCCAGCACAGUGAAAUGGACAGAAGGGCAGAGCAA [G5C C6G U7C G8A C9U U10C],3.11
3,AGUUAUAUAUGGGAGCUCCAGCACAGUGAAAUGGACAGAAGGGCAGACCAA [G5A C6U U7A G8U C9A G48C],0.13
4,AGUUAUUCUCGGGAGCUCCAGCACAGUGAAAUGGACAGAAGGGCAGAGCAA [G5A C6U G8C C9U U10C],0.807
5,AGUUGCUGCUCUGAGCUCCAGCACAGUGAAAUGGACAGAAGGGCAGAGCAA [G11C G12U],0.467
6,AGUUGACGACGGGAGCUCCAGCACAGUGAAAACGACAGAAGGGCAGAGCAA [C6A U7C C9A U10C U32A G33C],3.5
7,AGUUGACGACGGGCUCUCCAGCACAGUGAAAUGGACAGAAGGGCAGAGCAA [C6A U7C C9A U10C A14C G15U],2.32
8,AGUUGAAGAAGGGAGCUACAGCACAGUGAAAUGGACAGAAGGGCAGAGCAA [C6A U7A C9A U10A C18A],0.411
9,AGUUGACGACGGGAGCUCCAGCACAGUGAAAUGGGCAGAAGGGCAGAGCAA [C6A U7C C9A U10C A35G],1.79
10,AGUGUAAGAAGGGAGCUCCAGCACAGUGAAAUGGACAGAAGGGCAGAGCAA [U4G G5U C6A U7A C9A U10A],0.0439
11,AGUUACCACCGGGAAAUCCAGCACAGUGAAAUGGACAGAAGGGCAGAGCAA [G5A U7C G8A U10C G15A C16A],1.46
12,AGUUUCUUUUGGGAGCUCCAGCACAGUGAAAUGGACAGAAGGGCAGCACAA [G5U G8U C9U A47C G48A],0.0919
13,AGUUGACAGCGGGAGCUCCAGCACAGUGAAAUGGACAGAAGGGCAGAGCAA [C6A U7C G8A C9G U10C],1.39
14,AGUUGAAGAAGGGAGCUCCAGCCCAGUGAAAUGGACAGAAGGGCAGAGCAA [C6A U7A C9A U10A A23C],0.443
15,AGUUAUAUAUGGGAGCUCCAGCACAGUGAAAGCGACAGAAGGGCAGAGCAA [G5A C6U U7A G8U C9A U32G G33C],0.0522
16,AGUUAGGGAUGGGAGCUCCAGCACAGUGAAAUGGACAGAAGCACAGAGCAA [G5A C6G U7G C9A G42C G43A],0.0348
17,AGUUCACACAGGGAGCUCCAGCACAGUGAAAUGGACAGACUGGCAGAGCAA [G5C C6A U7C G8A U10A A40C G41U],0.0519
18,AGUUCACACAGGGAGCUCCAGCACUGUGAAAUGGACAGAAGGGCAGAGCAA [G5C C6A U7C G8A U10A A25U],0.205
19,AGUUUCUUUUGGGAGCUCCAGCGUAGUGAAAUGGACAGAAGGGCAGAGCAA [G5U G8U C9U A23G C24U],0.0193
20,AGUUGAAGAAGGGAGCUCCAGCACAGUGAAAUGGAUAGAAGGGCAGAGCAA [C6A U7A C9A U10A C36U],0.122
21,AGUUGACGACGGGAGCUCCAGCACAGUGAAAUGGACAGACGGGCAGAGCAA [C6A U7C C9A U10C A40C],3.36
22,AGUUAGGGAUGGGGGCUCCAGCACAGUGAAAUGGACAGAAGGGCAGAGCAA [G5A C6G U7G C9A A14G],0.00241
23,AGUUUCUUUUGGGAGCUCCAGCACAGUGAAAUGGACGGAAGGGCAGAGCAA [G5U G8U C9U A37G],0.303
24,AGUAUAAGAAGGGAGCUCCAGCACAGUGAAAUGGACAGAAGGGCAGAGCAA [U4A G5U C6A U7A C9A U10A],0.0651
25,AGGACACACAGGGAGCUCCAGCACAGUGAAAUGGACAGAAGGGCAGAGCAA [U3G U4A G5C C6A U7C G8A U10A],0.0657
